Earlier results on two substances are cited in publication PMC5298935.

Usually Kd stands for the concentration at which binding is half-saturated.

In data set [1] the target is IRAK1 p173 peptide 157-180 (Homo sapiens) (UniProt P51617). Put plainly: NMR titration.
Data set [2] deals with IRAK1 p144 peptide 140-149 (Homo sapiens) (UniProt P51617). Put plainly: NMR titration.
Data set [3] deals with IRAK1 p144 peptide UD (Homo sapiens) (UniProt P51617). Put plainly: NMR.
The target in data set [4] is IRAK1 p131 peptide UD (Homo sapiens) (UniProt P51617). Put plainly: NMR.
Data set [5] has as its target IRAK1 p173 peptide UD (Homo sapiens) (UniProt P51617). Put plainly: NMR.

Pin1 WW, sequence (Q13526 2-42): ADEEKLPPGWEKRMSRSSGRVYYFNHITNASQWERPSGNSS
Pin1 WW domain 1-50, sequence (Q13526 1-50): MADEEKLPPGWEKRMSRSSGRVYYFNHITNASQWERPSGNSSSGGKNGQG
IRAK1 p144 peptide 140-149 (Homo sapiens), sequence (P51617 whole entry, looked up, tested part not stated): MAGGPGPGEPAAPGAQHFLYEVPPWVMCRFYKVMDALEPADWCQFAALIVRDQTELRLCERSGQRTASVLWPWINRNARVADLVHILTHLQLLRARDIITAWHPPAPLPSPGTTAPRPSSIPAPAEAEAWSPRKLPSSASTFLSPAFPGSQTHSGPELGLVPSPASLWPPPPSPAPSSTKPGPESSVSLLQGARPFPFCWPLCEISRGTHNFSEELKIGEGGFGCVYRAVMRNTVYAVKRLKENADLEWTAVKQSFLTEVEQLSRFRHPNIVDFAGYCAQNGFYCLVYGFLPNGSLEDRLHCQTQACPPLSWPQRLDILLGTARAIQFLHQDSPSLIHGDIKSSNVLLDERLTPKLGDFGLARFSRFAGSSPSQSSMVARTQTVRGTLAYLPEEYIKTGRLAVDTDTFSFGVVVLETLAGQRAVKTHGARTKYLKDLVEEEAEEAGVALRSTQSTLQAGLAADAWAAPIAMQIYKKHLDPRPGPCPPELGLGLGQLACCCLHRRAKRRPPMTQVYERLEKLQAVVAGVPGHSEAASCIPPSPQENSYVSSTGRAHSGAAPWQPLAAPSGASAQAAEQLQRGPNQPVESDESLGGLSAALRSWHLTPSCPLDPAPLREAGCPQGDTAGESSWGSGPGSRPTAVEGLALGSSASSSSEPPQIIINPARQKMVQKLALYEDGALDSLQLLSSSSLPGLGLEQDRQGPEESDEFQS
IRAK1 p131 peptide UD (Homo sapiens), sequence (P51617 whole entry, looked up, tested part not stated): as above
IRAK1 p173 peptide UD (Homo sapiens), sequence (P51617 whole entry, looked up, tested part not stated): as above
IRAK1 p144 peptide UD (Homo sapiens), sequence (P51617 whole entry, looked up, tested part not stated): as above
IRAK1 p173 peptide 157-180 (Homo sapiens), sequence (P51617 157-180): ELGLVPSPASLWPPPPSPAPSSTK

“Pin1 WW domain 1-50 (from UniProt Q13526)”: the Kd was 260 µM in data set [1] and 120 µM in data set [2].
Pin1 WW (from UniProt Q13526): the Kd was 120 µM in data set [3], 220 µM in data set [4] and 260 µM in data set [5].
